In the supplement of paper PMC9170038:

Tested on: MS2 coat protein
Assay: apparent KD of MS2 coat protein; designed switch direction (-1 OFF switch, 1 ON switch): 1; higher = weaker reporter binding
Outline: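 RNA switches sharing common flanks were transcribed by stalled E. coli RNA polymerase on Illumina chips. A doubling series of SNAP-549-labelled MS2 coat protein, from 0.7 or 1.5 nM to 3 µM, was applied in Tris-HCl pH 7.5 buffer with KCl, MgCl2, BSA, DTT, tRNA and Tween-20. Each step lasted 0.8–1.5 h at the bottom of the series and 10–20 min at the top. Normalised cluster fluorescence was curve-fitted, giving apparent KD as the per-design median over clusters.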

[1] = input ligand: microRNA oligo, concentration not stated
[2] = Eterna round: R95, input ligand: FMN 200 uM
[3] = Eterna round: R95, input ligand: microRNA oligo, concentration not stated
[4] = Eterna round: R95, input ligand: none

Sequence | apparent KD of MS2 coat protein (input ligand: FMN 200 uM) [nM] | apparent KD of MS2 coat protein [1] [nM] | apparent KD of MS2 coat protein (input ligand: none) [nM] | apparent KD of MS2 coat protein [2] [nM] | apparent KD of MS2 coat protein [3] [nM] | apparent KD of MS2 coat protein [4] [nM]
AUUAGUGGUGGAGGAUAUGGGAAAGGAAGUGUACUAGAAGGCCACCGCCCUCUAGCACAUGAGGAUCACCCAUGUAUAGAGCCC [PowerStrip SSNG 1.14] (Eterna round: R96, puzzle: Same State NG 1) | 243 | 25.8 | 88.2 |  |  | 
GUAAAACAUGAGGAUCACCCAUGUCAUCUAAGUCGAGGAUAUGGGAAUUAAUUAAUUAAACCAGAAGGCGAAAUUG [Mat - Same State 1 - D97] (puzzle: Same State 1) |  |  |  | 44.6 | 844 | 606
UGAGCCGGCACUGAGGAUAUUCAUAAUAAAACAUGAGGAUCACCCAUGUAGGCCAGAAGGCCUUGGGAGAAGGCAGGUCGGCUCA [Mat - Same State 2 - Mod of UCT - D71] (puzzle: Same State 2) |  |  |  | 16.7 | 134 | 247
AUUACUAACAUAGGAUAUCAUGCGAAAAUUGCGUGAGAAGGGUGGACACUGUCAUUCUCGGAGCACAUGAGGAUCACCCAUGUG [SameState NG1 #70] (Eterna round: R96, puzzle: Same State NG 1) | 80.6 | 42.4 | 59 |  |  | 
AUUAUUUAUGCAGGAUAUGAUUAACAUGAGGAUCACCCAUGUGGUGUUGUGAGUAAGGAGAGUGAUCAGAAGGGCAUUUUUUGU [JMF's solution 54] (Eterna round: R96, puzzle: Same State NG 2) | 713 | 531 | 464 |  |  | 
GCUACCAAAGAAGCCAACAUGAGGAUCACCCAUGUAUGUUGGUAGGAUAUCGUUUGCAAAGCGAACGAGAAGGGCUAAGGUAGC [Mat - Same State NG 3 - JL Mod - D85] (Eterna round: R96, puzzle: Same State NG 3) | 151 | 88.1 | 101 |  |  | 
GGUAUUAACACAGGAUAUGCUUACGAAACGUAAGCAGAAGGGUGAACAUGAGGAUCACCCAUGUUUGUACCAGGGCGUGAGCCC [JL SSNG1 1.72] (Eterna round: R96, puzzle: Same State NG 1) | 349 | 632 | 923 |  |  | 
CCGAUAAUUGGAGGAUAUGGAGCCUUAUUGGCUCCAGAAGGCUAUAAACAUGAGGAUCACCCAUGUCGGCGGUCUAAUGACCGA [Eli NG1ss - 50] (Eterna round: R96, puzzle: Same State NG 1) | 28 | 36.6 | 60.4 |  |  | 
AAUAUUUAUGCAGGAUAUGAUUAACAUGAGGAUCACCCAUGUGGUGUUGUGAGUAAGGAGAGUGAUCAGAAGGGCAUUUUUUUU [JMF's solution 73] (Eterna round: R96, puzzle: Same State NG 2) | 379 | 271 | 463 |  |  | 
AAACUAGGCGGUCCAACAUGAGGAUCACCCAUGUAAAAUUCAUAGGAUAUGCCUAUAGAAACAAGGCAGAAGGGUGAGACCGCA [Atsoorle] (Eterna round: R96, puzzle: Same State NG 3) | 68.6 | 93.7 | 134 |  |  | 
AGCCGAGACUGAGGAUAUUUGUAUCUACAUGAGGAUCACCCAUGUAGCGUCACGUGGUAGUGAUCGAAGAAGGCAGCUCGGCGC [MOD3 of Omei's SS(NG)2 Cv2] (Eterna round: R96, puzzle: Same State NG 2) | 11.1 | 11.2 | 21.9 |  |  | 
UGUCCAGCCUGAGCUGGACAAAAGCAUGUACAUGAGGAUCACCCAUGUUCAUGUACAAGCUUUUUGCUCGUCUUGCA [salish99_208a_r3_109x] (puzzle: Sensor for hsa-mir-208a) |  |  |  | 637 | 14.5 | 492
UUUCGAUAGAUAGGAUAUCACUUUACAUGAGGAUCACCCAUGUUGGCUGUGCUGAUUAUUAAAACUGAGAAGGAUCUUGAUGAC [JR_SSNG2_Sub003] (Eterna round: R96, puzzle: Same State NG 2) | 25.2 | 22 | 23.5 |  |  | 
GGUAGGUUACUACCAAACAUGAGGAUCACCCAUGUAAGUGGGAAGGAUAUGGUACCUUUUAGGUACCAGAAGGUCCAUAAAAUU [JL Fiskers NG3ss - 2 mod 7] (Eterna round: R96, puzzle: Same State NG 3) | 314 | 355 | 2090 |  |  | 
GGUCCAGCCUGAGCUGGACAAAAGCAUGUACAUGAGGAUCACCCAUGUUCAUGUACAAGCUUUUUGCUCGUCUUACC [salish99_208a_r3_090x] (puzzle: Sensor for hsa-mir-208a) |  |  |  | 570 | 15.9 | 823
CUUUAUCACUAUACAUGAGGAUCACCCAUGUUAUCAUCAUGAGAGGAUAUCGUAUUUGGAUUUUUCGAGAAGGCUCUUUUGUAU [JR_SSNG3_Sub076] (Eterna round: R96, puzzle: Same State NG 3) |  | 90.4 |  |  |  | 
AGUCCAGCCUGAGCUGGACAAAAGCAUGUACAUGAGGAUCACCCAUGUUCAUGUACAAGCUUUUUGCUCGUCUUAUC [salish99_208a_r3_058] (puzzle: Sensor for hsa-mir-208a) |  |  |  | 578 | 16.6 | 677
AUUAUUAAUGCAGGAUAUGAUUAACAUGAGGAUCACCCAUGUGGUGUUGUGAGUAAGGAGAGAGAUCAGAAGGGCAUUUUUUUU [JMF's solution 5] (Eterna round: R96, puzzle: Same State NG 2) | 317 | 263 | 361 |  |  | 
AGAGGAGGAGCAGGAUAUUCGAAGAAGGACGUGGAAGAAGGGUUCAUGCGAUGACAUGAGGAUCACCCAUGUACCGCGCGUUGA [AK SSNG1-V2-14] (Eterna round: R96, puzzle: Same State NG 1) | 185 | 78.6 | 156 |  |  | 
AGAGGAGGCGCAGGAUAUACGACGGAGGACGAGGUAGAAGGGUGCAUGCGAUAACAUGAGGAUCACCCAUGUACCGCGCGACGA [AK SSNG1-V2-17.1] (Eterna round: R96, puzzle: Same State NG 1) | 122 | 24.9 | 45.6 |  |  | 
AAAAGAAACACAGGAUAUACCGCAAUUAACACGGUAGAAGGGUGGGACAUGAGGAUCACCCAUGUGACCUGAACACCAGGUCGC [Enrien] (Eterna round: R96, puzzle: Same State NG 1) | 369 | 17.9 | 105 |  |  | 
ACAAGACAGGGAGGAUAUAGCUGUUCAUCAAAGUUAGAAGGCUCGUACACAUGAGGAUCACCCAUGUUGUCGGCAGUCGACUGA [Eternabot solution 42] (Eterna round: R96, puzzle: Same State NG 1) | 7.44 | 9.67 | 12.2 |  |  | 
UGGCUCAGACGAGGAUAUAUGUGGUCACAUGAGGAUCACCCAUGUCUCGAGCUUCGGCUCGAGGCAUAGAAGGUGUCUGAGCCU [SSNG2/5-C3] (Eterna round: R96, puzzle: Same State NG 2) | 132 | 33.5 | 23.1 |  |  | 
UACAAUCUAUCUCAGGAUAUCAUGUCAAAGACAUGAGGAUCACCCAUGUACCAGGAAACUGGUUAUGAGAAGGGAGAUAGAUUGA [Mat - Same State 2 - Mod - D25] (puzzle: Same State 2) |  |  |  | 119 | 59.1 | 390
UUUUUUUUGACGAGACAAGCUUUUUGAUCACAUGAGGAUCACCCAUGUCUCGUCUUAUUUUUUUUUUUUUUUUUUUU [BA Sensor hsa-mir-208a - 2 - 2] (puzzle: Sensor for hsa-mir-208a) |  |  |  | 17.4 | 9.64 | 7.54
CGGGAGAUCGUAGGAUAUCUAGGAUAUGAACGAGGAUCACCCGAGCAGCAUCAGCGCAUCAGAGGAGAGAAGGACGAUCAUGCG [pwkr ssNG2 2F5 2FMN.6] (Eterna round: R96, puzzle: Same State NG 2) | 751 | 31.7 | 741 |  |  | 
AGCUAUUAAUCAGGAUAUAGGGACAUGAGGAUCACCCAUGUAUACAUGAUGAAAUGUGGUCACGUCUAGAAGGGAUUACUAACA [SameState NG2 #41] (Eterna round: R96, puzzle: Same State NG 2) | 150 | 184 | 262 |  |  | 
